Test results reported in article PMC3225088.

Biological target: T1, NmtR wild-type (Mycobacterium tuberculosis, UniProt O69711 2-120)
T1 sequence: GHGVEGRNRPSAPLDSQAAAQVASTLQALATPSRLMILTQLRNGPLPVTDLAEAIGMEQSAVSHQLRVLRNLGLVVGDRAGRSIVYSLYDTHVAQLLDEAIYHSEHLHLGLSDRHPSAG
Experiment: fluorescence anisotropy

B1: nmt operator 30 bp (dsDNA)
DNA 1: GAAATAAATGAACATATGATCATATATTCT
DNA 2: AGAATATATGATCATATGTTCATTTATTTC
Question: Which Ka does the source give for B1 here?
Answer: Its Ka is 2.86e+10 M⁻¹.
